Measured values taken from paper PMC8542614 (Nature, 2021).
Read-outs that look alike come from different tables or passages of the source.

Key:
[1] = target: T1, HCV E2 ectodomain (eE2), full length, residues 384-656, genotype J6 (HCV genotype J6, N-linked glycans (fully glycosylated)); experiment: ITC
[2] = target: T1, HCV E2 ectodomain (eE2), full length, …; experiment: ITC; remark: listed apart in the source

B1: tamarin CD81 large extracellular loop (tCD81-LEL), residues 112-202, with plasmid-encoded N-terminal residues (domain or fragment)
chain: GFVNKDQIAKDVKQFYDQALQQAVVDDDANNAKAVVKTFHETLNCCGSSTLSALTTSMLKNNLCPSGSSIISNLFKEDCHQKIDELFSGKL
- Kd [1]: 175 nM
- dH [1]: -8.52 kcal/mol
- stoichiometry N [1]: 0.67
- Kd [2]: 37 nM
- dH [2]: -12.3 kcal/mol
- stoichiometry N [2]: 0.57
